Measurements: publication PMC9464187 (2022)

Experiments:
[1] = target: HLA-A*11:01 presenting the KRAS^G12D decamer peptide …; assay: SPR
[2] = target: HLA-A*11:01 presenting the KRAS G12D decamer peptide …; assay: SPR; biotinylated pHLA (400-500 RU) immobilised on a streptavidin-coated CM5 chip, Biacore T200; multi cycle steady state analysis, ten 2-fold dilutions of TCR starting at 50 µM; one site fit
[3] = target: HLA-A*11:01 presenting the KRAS^G12D decamer peptide … (human | not stated); assay: SPR; biotinylated pHLA (400-500 RU) immobilised on a streptavidin-coated CM5 sensor chip, Biacore T200; multi cycle steady state analysis, 10-point titration of JDI TCR from 50 µM to 0.1 µM; one site total least squares fit
[4] = target: T1, KRAS G12D peptide on HLA-A*11:01 (human); assay: SPR single cycle kinetics; soluble, with an engineered disulfide between the constant domains
T1 peptide: VVVGADGVGK

[5] = target: T2, KRAS WT peptide on HLA-A*11:01 (human); assay: SPR; >4000-fold weaker than to KRAS G12D; soluble, with an engineered disulfide between the constant domains
T2 peptide: VVVGAGGVGK

**Q.** Which other: t1/2 [1] does the source give for JDI TCR (parent TCR) JDIa96b35 here?
**A.** The other: t1/2 was > 20 h.

**Q.** Which Kd [2] does the source give for JDI TCR (parent TCR) here?
**A.** Its Kd is 62.8 µM.

**Q.** And the Kd [3]?
**A.** The Kd was 63 µM.

**Q.** JDI TCR (parent TCR) JDIa9bwt was tested. Which other: t1/2 [1] did it give?
**A.** The other: t1/2 was 0.3 h.

B1: JDIa41b1 TCR (TCR)
alpha TRAV19*01 CDR3: AMSVPSGDGSYQFT
beta TRBV6-2*01 CDR3: ASKVGPGQHNSPLH
**Q.** With B1 as the molecule, how does the t1/2 [4] read?
**A.** Its t1/2 is 1.2 h.

**Q.** And the Kd [5]?
**A.** The Kd was 3 µM.
